Like-named read-outs stand apart in the source and are kept apart here.
Legend:
HLA-B*3501 [1] = target: HLA-B*3501
HLA-B*3501 [2] = experiment: MHC-peptide assembly over 24 h, ELISA with conformational antibody; reading minus pass/fail control

How did the ELISA (Absorption-Pass/Fail Control) (HLA-A*0201) turn out when LLFAIVSLV (modifications not checked) [… (SEQ ID NO: 12)] was run?
The ELISA (Absorption-Pass/Fail Control) was 1.06 absorption.

With PLILRDCSV (modifications not checked) [… (SEQ ID NO: 36)] as the binder, how does the ELISA (Absorption-Pass/Fail Control) (HLA-B*0801) read?
Its ELISA (Absorption-Pass/Fail Control) is 0.65 absorption.

How did the ELISA (Absorption-Pass/Fail Control) (HLA-A*0201) turn out when VLLFAIVSL (modifications not checked) [… (SEQ ID NO: 11)] was run?
The ELISA (Absorption-Pass/Fail Control) was 0.47 absorption.

For VAGWLLGNP (modifications not checked) [… (SEQ ID NO: 37)], which ELISA (Absorption-Pass/Fail Control) (HLA-B*0801) is on record?
The ELISA (Absorption-Pass/Fail Control) was 0.04 absorption.

How did the ELISA (Absorption-Pass/Fail Control) (HLA-A*0101) turn out when KSDQICIGY (modifications not checked) [… (SEQ ID NO: 9)] was run?
Its ELISA (Absorption-Pass/Fail Control) is 0.47 absorption.

And the ELISA (Absorption-Pass/Fail Control) (HLA-A*0301)?
Its ELISA (Absorption-Pass/Fail Control) is 0.05 absorption.

VSLVKSDQI (modifications not checked) [… (SEQ ID NO: 31)] was tested. Which ELISA (Absorption-Pass/Fail Control) (HLA-B*0801) did it give?
Its ELISA (Absorption-Pass/Fail Control) is 0.36 absorption.

With ILEKKHNGK (modifications not checked) [… (SEQ ID NO: 28)] as the binder, how does the ELISA (Absorption-Pass/Fail Control) (HLA-B*0801) read?
Its ELISA (Absorption-Pass/Fail Control) is 0.95 absorption.

And the ELISA (Absorption-Pass/Fail Control) (HLA-A*0301)?
Its ELISA (Absorption-Pass/Fail Control) is -0.01 absorption.

With LGNPMCDEF (modifications not checked) [… (SEQ ID NO: 43)] as the binder, how does the ELISA (Absorption-Pass/Fail Control) (HLA-B*3501 [1]) read?
The ELISA (Absorption-Pass/Fail Control) was 0.35 absorption.

Which ELISA (Absorption-Pass/Fail Control) (HLA-B*0702) does the source give for ILRDCSVAG (modifications not checked) [… (SEQ ID NO: 30)] here?
The ELISA (Absorption-Pass/Fail Control) was 0.03 absorption.

With LILRDCSVA (modifications not checked) [… (SEQ ID NO: 23)] as the binder, how does the ELISA (Absorption-Pass/Fail Control) (HLA-A*0201) read?
Its ELISA (Absorption-Pass/Fail Control) is 0.57 absorption.

And the ELISA (Absorption-Pass/Fail Control) (HLA-B*0801)?
Its ELISA (Absorption-Pass/Fail Control) is 0.07 absorption.

VTHAQDILE (modifications not checked) [… (SEQ ID NO: 33)] was tested. Which ELISA (Absorption-Pass/Fail Control) (HLA-B*0801) did it give?
Its ELISA (Absorption-Pass/Fail Control) is 0.31 absorption.

For GNPMCDEFI (modifications not checked) [… (SEQ ID NO: 39)], which ELISA (Absorption-Pass/Fail Control) (HLA-B*0801) is on record?
Its ELISA (Absorption-Pass/Fail Control) is 0.04 absorption.

Which results are given for FINVPEWSY (modifications not checked) [… (SEQ ID NO: 10)]?
ELISA (Absorption-Pass/Fail Control) (HLA-A*0101): 0.16 absorption; ELISA (Absorption-Pass/Fail Control) (HLA-B*3501 [1]): 0.57 absorption

How did the ELISA (Absorption-Pass/Fail Control) (HLA-B*0702) turn out when LVKSDQICI (modifications not checked) [… (SEQ ID NO: 29)] was run?
The ELISA (Absorption-Pass/Fail Control) was -0.06 absorption.

And the ELISA (Absorption-Pass/Fail Control) (HLA-B*3501 [1])?
The ELISA (Absorption-Pass/Fail Control) was 0.04 absorption.

Which ELISA (Absorption-Pass/Fail Control) (HLA-A*0201) does the source give for AIVSLVKSD (modifications not checked) [… (SEQ ID NO: 14)] here?
The ELISA (Absorption-Pass/Fail Control) was 0.43 absorption.

With SLVKSDQIC (modifications not checked) [… (SEQ ID NO: 16)] as the binder, how does the ELISA (Absorption-Pass/Fail Control) (HLA-A*0201) read?
The ELISA (Absorption-Pass/Fail Control) was 0.09 absorption.

What about the ELISA (Absorption-Pass/Fail Control) (HLA-B*3501 [1]) of the same binder?
Its ELISA (Absorption-Pass/Fail Control) is -0.03 absorption.

Which ELISA (Absorption-Pass/Fail Control) (HLA-A*0201) does the source give for PMCDEFINV (modifications not checked) [… (SEQ ID NO: 24)] here?
Its ELISA (Absorption-Pass/Fail Control) is 0.98 absorption.

DILEKKHNG (modifications not checked) [… (SEQ ID NO: 34)] was tested. Which ELISA (Absorption-Pass/Fail Control) (HLA-B*0801) did it give?
Its ELISA (Absorption-Pass/Fail Control) is 0.53 absorption.

For IVSLVKSDQ (modifications not checked) [… (SEQ ID NO: 15)], which ELISA (Absorption-Pass/Fail Control) (HLA-A*0201) is on record?
The ELISA (Absorption-Pass/Fail Control) was 0.04 absorption.

With WLLGNPMCD (modifications not checked) [… (SEQ ID NO: 38)] as the binder, how does the ELISA (Absorption-Pass/Fail Control) (HLA-B*0801) read?
Its ELISA (Absorption-Pass/Fail Control) is 0.03 absorption.

AQDILEKKH (modifications not checked) [… (SEQ ID NO: 21)] was tested. Which ELISA (Absorption-Pass/Fail Control) (HLA-A*0201) did it give?
Its ELISA (Absorption-Pass/Fail Control) is 0.15 absorption.

How did the ELISA (Absorption-Pass/Fail Control) (HLA-A*0201) turn out when MEKNVTVTH (modifications not checked) [… (SEQ ID NO: 20)] was run?
The ELISA (Absorption-Pass/Fail Control) was -0.02 absorption.

How did the ELISA (Absorption-Pass/Fail Control) (HLA-A*0201) turn out when KLCDLDGVK (modifications not checked) [… (SEQ ID NO: 22)] was run?
Its ELISA (Absorption-Pass/Fail Control) is 0.2 absorption.

What about the ELISA (Absorption-Pass/Fail Control) (HLA-A*0301) of the same binder?
Its ELISA (Absorption-Pass/Fail Control) is 1.16 absorption.

Which ELISA (Absorption-Pass/Fail Control) (HLA-B*3501 [1]) does the source give for LFAIVSLVK (modifications not checked) [… (SEQ ID NO: 40)] here?
The ELISA (Absorption-Pass/Fail Control) was 0.1 absorption.

What does the source list for HANNSTEQV (modifications not checked) [… (SEQ ID NO: 17)]?
ELISA (Absorption-Pass/Fail Control) (HLA-A*0201): 0.43 absorption; ELISA (Absorption-Pass/Fail Control) (HLA-B*3501 [1]): 0.43 absorption

For FAIVSLVKS (modifications not checked) [… (SEQ ID NO: 13)], which ELISA (Absorption-Pass/Fail Control) (HLA-A*0201) is on record?
The ELISA (Absorption-Pass/Fail Control) was 0.07 absorption.

For KPLILRDCS (modifications not checked) [… (SEQ ID NO: 35)], which ELISA (Absorption-Pass/Fail Control) (HLA-B*0801) is on record?
Its ELISA (Absorption-Pass/Fail Control) is 0.1 absorption.

For TIMEKNVTV (modifications not checked) [… (SEQ ID NO: 18)], which ELISA (Absorption-Pass/Fail Control) (HLA-A*0201) is on record?
Its ELISA (Absorption-Pass/Fail Control) is 0.99 absorption.

And the ELISA (Absorption-Pass/Fail Control) (HLA-B*0702)?
Its ELISA (Absorption-Pass/Fail Control) is 0 absorption.

And the ELISA (Absorption-Pass/Fail Control) (HLA-B*0801)?
The ELISA (Absorption-Pass/Fail Control) was 0.8 absorption.

IMEKNVTVT (modifications not checked) [… (SEQ ID NO: 19)] was tested. Which ELISA (Absorption-Pass/Fail Control) (HLA-A*0201) did it give?
The ELISA (Absorption-Pass/Fail Control) was 0.02 absorption.

With HPVGEADYFEY (modifications not checked) [… (SEQ ID NO: 8)] as the binder, how does the ELISA (Absorption-Pass/Fail Control) (HLA-B*3501 [2]) read?
Its ELISA (Absorption-Pass/Fail Control) is 0.55 absorption.

Which results are given for NVTVTHAQD (modifications not checked) [… (SEQ ID NO: 27)]?
ELISA (Absorption-Pass/Fail Control) (HLA-B*0801): 0.08 absorption; ELISA (Absorption-Pass/Fail Control) (HLA-A*0301): -0.04 absorption

For DTIMEKNVT (modifications not checked) [… (SEQ ID NO: 32)], which ELISA (Absorption-Pass/Fail Control) (HLA-B*0801) is on record?
The ELISA (Absorption-Pass/Fail Control) was 0.08 absorption.

Which ELISA (Absorption-Pass/Fail Control) (HLA-B*3501 [1]) does the source give for AGWLLGNPM (modifications not checked) [… (SEQ ID NO: 42)] here?
The ELISA (Absorption-Pass/Fail Control) was -0.06 absorption.

NVPEWSYIV (modifications not checked) [… (SEQ ID NO: 25)] was tested. Which ELISA (Absorption-Pass/Fail Control) (HLA-A*0201) did it give?
The ELISA (Absorption-Pass/Fail Control) was 1.03 absorption.

Source: US20070197446A1, “MHC binding peptides and their uses” (ProImmune Limited, priority 2006, published 2007)
